{"source": "paper PMC5206724", "about": "“Insensitivity to pain induced by a potent selective closed-state Nav1.7 inhibitor” (Scientific Reports, 2017)", "key": {"human Nav1.1 (human)": {"target": "human Nav1.1 (human) (UniProt P35498)"}, "human Nav1.2 (human)": {"target": "human Nav1.2 (human) (UniProt Q99250)", "sequence (Q99250 whole entry)": "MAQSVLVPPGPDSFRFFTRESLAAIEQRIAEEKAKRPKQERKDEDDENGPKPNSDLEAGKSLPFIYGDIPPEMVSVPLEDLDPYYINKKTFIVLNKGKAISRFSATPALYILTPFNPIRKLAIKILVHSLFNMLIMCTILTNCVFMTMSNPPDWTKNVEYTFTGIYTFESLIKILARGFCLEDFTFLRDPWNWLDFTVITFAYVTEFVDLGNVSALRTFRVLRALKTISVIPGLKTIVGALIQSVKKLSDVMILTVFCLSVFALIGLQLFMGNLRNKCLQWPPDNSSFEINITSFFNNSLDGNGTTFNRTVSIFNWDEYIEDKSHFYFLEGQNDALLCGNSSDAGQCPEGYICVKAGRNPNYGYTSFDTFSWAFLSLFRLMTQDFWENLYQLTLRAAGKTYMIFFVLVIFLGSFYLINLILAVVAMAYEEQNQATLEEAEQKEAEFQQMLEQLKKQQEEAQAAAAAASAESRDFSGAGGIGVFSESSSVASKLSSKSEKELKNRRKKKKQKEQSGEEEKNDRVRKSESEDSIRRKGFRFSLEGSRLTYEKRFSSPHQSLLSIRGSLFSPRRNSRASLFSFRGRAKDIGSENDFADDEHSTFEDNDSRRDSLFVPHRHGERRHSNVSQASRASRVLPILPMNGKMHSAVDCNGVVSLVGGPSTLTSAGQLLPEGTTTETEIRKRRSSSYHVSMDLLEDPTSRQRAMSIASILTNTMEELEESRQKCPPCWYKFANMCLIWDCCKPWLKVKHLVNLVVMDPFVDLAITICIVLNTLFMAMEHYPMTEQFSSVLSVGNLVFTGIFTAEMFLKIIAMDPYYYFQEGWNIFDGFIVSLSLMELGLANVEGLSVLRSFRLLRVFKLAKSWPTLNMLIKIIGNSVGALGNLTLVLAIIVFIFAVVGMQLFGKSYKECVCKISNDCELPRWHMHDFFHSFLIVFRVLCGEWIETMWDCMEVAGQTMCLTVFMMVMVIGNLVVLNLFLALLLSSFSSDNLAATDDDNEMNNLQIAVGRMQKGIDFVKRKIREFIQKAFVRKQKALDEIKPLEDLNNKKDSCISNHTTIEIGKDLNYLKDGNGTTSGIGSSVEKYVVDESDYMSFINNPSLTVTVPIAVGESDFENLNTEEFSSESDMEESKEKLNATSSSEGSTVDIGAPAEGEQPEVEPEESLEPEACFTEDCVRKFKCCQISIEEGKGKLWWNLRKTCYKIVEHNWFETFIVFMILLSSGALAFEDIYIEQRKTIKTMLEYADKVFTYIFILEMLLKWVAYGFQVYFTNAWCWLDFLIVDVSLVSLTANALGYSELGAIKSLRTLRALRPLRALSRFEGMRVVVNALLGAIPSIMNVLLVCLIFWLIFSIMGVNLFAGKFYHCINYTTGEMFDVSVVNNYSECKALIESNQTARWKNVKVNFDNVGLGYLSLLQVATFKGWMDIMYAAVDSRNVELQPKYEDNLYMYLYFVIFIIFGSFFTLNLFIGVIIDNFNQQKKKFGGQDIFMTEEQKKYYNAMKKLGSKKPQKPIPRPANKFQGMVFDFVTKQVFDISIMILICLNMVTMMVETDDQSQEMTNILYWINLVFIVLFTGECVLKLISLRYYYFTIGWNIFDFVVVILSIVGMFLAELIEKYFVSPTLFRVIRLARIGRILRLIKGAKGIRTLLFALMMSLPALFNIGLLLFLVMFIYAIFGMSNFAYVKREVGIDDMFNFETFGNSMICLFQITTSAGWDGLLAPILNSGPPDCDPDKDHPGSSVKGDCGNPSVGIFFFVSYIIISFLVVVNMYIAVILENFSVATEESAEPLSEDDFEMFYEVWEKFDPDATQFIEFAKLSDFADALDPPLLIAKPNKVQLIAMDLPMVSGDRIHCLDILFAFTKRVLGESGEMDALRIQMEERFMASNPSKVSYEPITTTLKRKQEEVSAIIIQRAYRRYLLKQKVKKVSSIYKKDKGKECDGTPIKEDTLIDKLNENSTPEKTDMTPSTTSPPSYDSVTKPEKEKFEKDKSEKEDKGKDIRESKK"}, "human Nav1.3 (human)": {"target": "human Nav1.3 (human) (UniProt Q9NY46)"}, "human Nav1.4 (human)": {"target": "human Nav1.4 (human) (UniProt P35499)"}, "human Nav1.5 (human)": {"target": "human Nav1.5 (human) (UniProt Q14524)", "sequence (Q14524 whole entry)": "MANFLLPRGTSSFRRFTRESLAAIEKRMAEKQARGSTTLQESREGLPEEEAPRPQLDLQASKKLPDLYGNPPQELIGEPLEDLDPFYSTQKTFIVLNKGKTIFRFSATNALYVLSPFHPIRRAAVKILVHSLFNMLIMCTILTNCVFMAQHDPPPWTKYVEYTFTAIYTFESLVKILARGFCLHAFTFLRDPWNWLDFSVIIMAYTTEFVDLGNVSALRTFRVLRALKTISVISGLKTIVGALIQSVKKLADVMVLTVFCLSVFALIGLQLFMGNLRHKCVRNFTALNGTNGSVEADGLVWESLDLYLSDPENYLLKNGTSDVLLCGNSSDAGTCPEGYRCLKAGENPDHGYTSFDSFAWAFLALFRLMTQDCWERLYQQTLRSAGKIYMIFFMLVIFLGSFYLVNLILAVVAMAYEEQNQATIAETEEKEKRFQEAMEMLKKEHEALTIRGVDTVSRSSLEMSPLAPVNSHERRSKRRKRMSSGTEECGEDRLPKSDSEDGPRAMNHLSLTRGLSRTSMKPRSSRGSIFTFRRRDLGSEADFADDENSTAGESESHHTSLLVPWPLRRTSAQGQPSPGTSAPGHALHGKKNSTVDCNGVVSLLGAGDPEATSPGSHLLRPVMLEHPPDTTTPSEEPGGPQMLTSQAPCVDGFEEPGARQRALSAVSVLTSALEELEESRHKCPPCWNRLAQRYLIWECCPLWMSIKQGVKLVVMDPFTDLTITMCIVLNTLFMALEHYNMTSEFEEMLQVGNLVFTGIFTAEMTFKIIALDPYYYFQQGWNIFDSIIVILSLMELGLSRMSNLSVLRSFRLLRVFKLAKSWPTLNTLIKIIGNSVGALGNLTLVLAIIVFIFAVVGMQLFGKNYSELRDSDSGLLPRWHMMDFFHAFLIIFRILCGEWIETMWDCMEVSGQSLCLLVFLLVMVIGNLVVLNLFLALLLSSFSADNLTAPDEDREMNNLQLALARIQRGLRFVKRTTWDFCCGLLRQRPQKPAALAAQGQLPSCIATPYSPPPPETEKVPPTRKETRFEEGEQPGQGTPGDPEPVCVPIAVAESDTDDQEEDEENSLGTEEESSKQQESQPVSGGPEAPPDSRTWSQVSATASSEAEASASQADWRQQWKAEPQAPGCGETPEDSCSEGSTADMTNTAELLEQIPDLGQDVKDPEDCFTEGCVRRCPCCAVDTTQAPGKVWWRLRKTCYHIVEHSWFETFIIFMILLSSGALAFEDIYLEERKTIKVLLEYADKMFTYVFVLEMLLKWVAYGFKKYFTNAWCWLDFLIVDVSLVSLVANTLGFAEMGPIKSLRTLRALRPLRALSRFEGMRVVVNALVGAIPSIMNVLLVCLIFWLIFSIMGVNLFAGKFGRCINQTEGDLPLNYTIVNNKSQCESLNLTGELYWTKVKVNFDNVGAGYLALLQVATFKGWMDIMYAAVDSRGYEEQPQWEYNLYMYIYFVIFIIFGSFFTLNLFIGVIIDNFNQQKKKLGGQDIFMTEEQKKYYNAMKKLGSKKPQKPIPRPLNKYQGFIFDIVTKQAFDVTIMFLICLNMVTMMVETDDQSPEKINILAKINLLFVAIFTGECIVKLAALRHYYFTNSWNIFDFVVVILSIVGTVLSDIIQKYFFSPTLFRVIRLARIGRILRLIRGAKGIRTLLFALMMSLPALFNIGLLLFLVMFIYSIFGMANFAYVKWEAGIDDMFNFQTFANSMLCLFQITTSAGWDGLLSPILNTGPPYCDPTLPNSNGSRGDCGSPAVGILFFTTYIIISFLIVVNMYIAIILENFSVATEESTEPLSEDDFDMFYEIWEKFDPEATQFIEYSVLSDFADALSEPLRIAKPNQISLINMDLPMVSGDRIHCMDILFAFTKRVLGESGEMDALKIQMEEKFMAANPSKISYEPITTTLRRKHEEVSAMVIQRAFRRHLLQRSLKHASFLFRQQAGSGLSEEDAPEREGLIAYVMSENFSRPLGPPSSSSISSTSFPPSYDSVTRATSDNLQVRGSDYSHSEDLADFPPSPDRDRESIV"}, "human Nav1.6 (human)": {"target": "human Nav1.6 (human) (UniProt Q9UQD0)"}}}
{"substance": "Protoxin-II (β/ω-theraphotoxin-Tp2a) (from UniProt P83476 1-30) (peptide)", "values": [{"measurement": "pIC50 of inhibition of sodium current, automated patch clamp (QPatch); fitted Emax 100 %", "setting": "human Nav1.1 (human)", "result": "7.8 -log10(IC50)"}, {"measurement": "pIC50 of inhibition of sodium current, automated patch clamp (QPatch); fitted Emax 100 %", "setting": "human Nav1.2 (human)", "result": "7.1 -log10(IC50)"}, {"measurement": "pIC50 of inhibition of sodium current, automated patch clamp (QPatch); fitted Emax 100 %", "setting": "human Nav1.3 (human)", "result": "7.6 -log10(IC50)"}, {"measurement": "pIC50 of inhibition of sodium current, automated patch clamp (QPatch); fitted Emax 100 %", "setting": "human Nav1.4 (human)", "result": "7.1 -log10(IC50)"}, {"measurement": "pIC50 of inhibition of sodium current, automated patch clamp (QPatch); fitted Emax 100 %", "setting": "human Nav1.5 (human)", "result": "6.4 -log10(IC50)"}, {"measurement": "pIC50 of inhibition of sodium current, automated patch clamp (QPatch); fitted Emax 100 %", "setting": "human Nav1.6 (human)", "result": "7.5 -log10(IC50)"}]}
